Measurements: US20250333541A1, “ANTIBODY, AND DRUG CONJUGATE AND USE THEREOF” (EVOPOINT BIOSCIENCES CO., LTD., priority 2022, published 2025)

T1: cynomolgus monkey TF-His (cynomolgus monkey, UniProt A0A2K5VX02 33-253)
T1 construct: range 33-252; Recombinant extracellular segment expressed in HEK293-EBNA cells and purified on a nickel column; also called c.TF-His; c; TF-his; not shown: His tag from vector pTT5-His
T1 sequence: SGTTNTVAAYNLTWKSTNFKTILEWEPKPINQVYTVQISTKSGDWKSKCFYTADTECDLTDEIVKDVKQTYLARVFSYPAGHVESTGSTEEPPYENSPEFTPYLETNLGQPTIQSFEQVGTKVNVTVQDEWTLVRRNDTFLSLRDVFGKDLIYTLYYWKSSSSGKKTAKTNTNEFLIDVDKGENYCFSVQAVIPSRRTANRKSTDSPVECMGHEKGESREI


Tests used:
[1] = target: tissue factor (TF) on the surface of TF-positive tumor cells (human, UniProt P13726 33-295); experiment: cell-based or functional assay
cynomolgus monkey TF-His [2] = target: T1, cynomolgus monkey TF-His; experiment: BLI (ForteBio Octet), antibody on ProA sensor, TF-His as analyte
Method: (§1) The dynamic affinity of the humanized antibodies was determined by ForteBio. The experimental procedures were as follows: a ProA sensor (18-5010, Octet) was taken out and pre-wetted with a PBST diluent (pH 7.4) for 10 min. The antibodies to be immobilized were diluted to 5 μg/mL. […] The program was set up, the sensor plate and sample plate were put in, then the program started. The sensor was regenerated with 20 mM glycine solution (pH 1.7). The data were analyzed using Octet analysis software to derive a result graph.

human TF-His = target: T2, human TF-His (human, UniProt P13726 33-251); experiment: as above
T2 construct: range 33-251; Recombinant extracellular segment expressed in HEK293-EBNA cells and purified on a nickel column; also called h.TF-His; h; TF-his; not shown: His tag from vector pTT5-His
Method: as §1

cynomolgus monkey TF-His [3] = target: T1, cynomolgus monkey TF-His; experiment: ELISA, plate coated with c.TF-His
Method: The ELISA plate was coated overnight with TF antigen (h.TF-His or c.TF-His antigen) in 50 mM carbonate coating buffer (CBS coating solution) at a coating concentration of 1 μg/mL in a volume of 100 μL at 4° C. The next day, the coating solution was removed, each well was washed once with 300 μL of PBS, and 100 μL of 2% BSA (Biotopped, A6020) in PBS was added to each well for blocking at 37° C. for 2 h. The test sample was subjected to a gradient dilution with 2% BSA in PBS to establish 11 concentration points. 100 μL of each of the samples obtained by the gradient dilution was added to the plate, and the plate was incubated at 37° C. for 2 h. The supernatant was removed, and each well was washed three times with 300 μL of PBST. 100 μL of HRP-conjugated secondary antibody in 2% BSA was added to each well, and the plate was incubated at 37° C. for 1 h. […] At the end of the incubation, the secondary antibody was removed, each well was washed five times with 300 μL of PBST, and 100 μL of TMB substrate (Huzhou InnoReagents Co., Ltd., TMB-S-004) was added to each well for color development for 5-20 min. 50 μL of 2 N HCl was added to each well to stop the reaction, and OD450 nm values were read using a microplate reader (manufacturer: MD, model: SpectraMax) and imported into GraphPad software for fitting and plotting to determine the binding of the samples to TF antigenic proteins.
The assay was performed as described in the general methods. Briefly, an ELISA plate coated with a human TF-his protein or a cynomolgus monkey TF-his protein was blocked with 2% BSA at 37° C. for 2 h, and each of the antibodies obtained by the gradient dilution (starting at 10 μg/mL, 3-fold graded dilution, 11 concentration points) was added. The plate was incubated at 37° C. for 2 h.

Binder	coagulation time V50 (s), MDA-MB-231 cells + human plasma, 2 mM Ca2+, 50 µg/mL antibody [1] [s]	coagulation time V50 (s), MDA-MB-231 cells + human plasma, 5 mM Ca2+, 20 µg/mL antibody [1] [s]	Kd (cynomolgus monkey TF-His [2]) [nM]	koff (cynomolgus monkey TF-His [2]) [s⁻¹]	kon (cynomolgus monkey TF-His [2]) [M⁻¹ s⁻¹]	Kd (human TF-His) [nM]	koff (human TF-His) [s⁻¹]	kon (human TF-His) [M⁻¹ s⁻¹]	EC50 (cynomolgus monkey TF-His [3]) [µg/mL]
22F11H5-hz1 (antibody, human IgG1, kappa, V domains shown, Humanized IgG1 kappa) VH: QVQLVQSGAEVKQPGASVKVSCKASGYTFTTYWMHWVRQAPGQGLEWMGMIDPSDSYTTYAQKFQGRVTLTVDTSTSTAYMELSSLRSEDTAVYYCARGSGPGLFAYWGQGTLVTVSS VL: DIQETQSPSSLSASVGDRVTITCRASQDIRNYLNWYQQKPGKAPKLLIYHTSRLQSGVPSRFSGSGSGTDYTLTISSLQPEDFATYYCQQGNMPPYTFGQGTKVEIKR	1640	49.4	12.7	0.00411	324000	9.8	0.00296	302000	0.0114
27H8H3-hz1 (antibody, human IgG1, kappa, V domains shown, Humanized IgG1 kappa) VH: QVQLVQSGAEVKKPGASVKVSCKASGYTFTTYWMHWVRQAPGQGLEWMGMIDPSDSYTSYAQKFQGRVTLTVDTSTSTAYMELSSLRSEDTAVYYCTRGSGPGLFAYWGQGTLVTVSS VL: DIQETQSPSSLSASVGDRVTITCRASQGISNYLNWYQQKPGKAPKLLIYHTSRLHSGVPSRFSGSVSGTDFTLTISSLQPEDFATYFCQQGNTLPYTFGQGTKVEIKR	750	26.2	42.5	0.0125	295000	42.5	0.0116	273000	0.0114
